Experimental data: patent US20240043568A1 (KEYMED BIOSCIENCES, published 2024)
Substitutions are numbered along the chain they refer to.

B1: GPC3×CD3 κλ002 (bispecific antibody, human IgG4 S228P, kappa, lambda)
light 1: DVVMTQSPLSLPVTPGEPASISCRSSQSIVHSNGNTYLEWYLKKPGQSPQLLIYKVSNRFSGVPDRFSGSGSGTDFTLKISRVEAEDVGVYFCLQVTHVPLTFGQGTKLEIKRTVAAPSVFIFPPSDEQLKSGTASVVCLLNNFYPREAKVQWKVDNALQSGNSQESVTEQDSKDSTYSLSSTLTLSKADYEKHKVYACEVTHQGLSSPVTKSFNRGEC
heavy 1: QVQLVQSGAEVKKPGSSVKVSCKASGYTFADYEIHWVREAPGQGLEWMGAIHPGSGGTAYAQKFQGRVTLTADESSTTAYMELSSLRSEDTAVYYCTRYYSFAYWGQGTLVTVSSASTKGPSVFPLAPCSRSTSESTAALGCLVKDYFPEPVTVSWNSGALTSGVHTFPAVLQSSGLYSLSSVVTVPSSSLGTKTYTCNVDHKPSNTKVDKRVESKYGPPCPPCPAPEFEGGPSVFLFPPKPKDTLMISRTPEVTCVVVDVSQEDPEVQFNWYVDGVEVHNAKTKPREEQFNSTYRVVSVLTVLHQDWLNGKEYKCKVSNKGLASSIEKTISKAKGQPREPQVCTLPPSQEEMTKNQVSLSCAVKGFYPSDIAVEWESNGQPENNYKTTPPVLDSDGSFFLVSKLTVDKSRWQEGNVFSCSVMHEALHNHYTQKSLSLSLGK
light 2: QAVVTQEPSLTVSPGGTVTLTCRSSTGAVTTSNYANWVQEKPGQAPRGLIGGTNKRAPWTPARFSGSLLGGKAALTITGAQAEDEAEYYCVLWYSNLWVFGGGTKLTVLGQPKAAPSVTLFPPSSEELQANKATLVCLISDFYPGAVTVAWKADSSPVKAGVETTTPSKQSNNKYAASSYLSLTPEQWKSHRSYSCQVTHEGSTVEKTVAPTECS
heavy 2: EVQLVESGGGLVQPGGSLRLSCAASGFTFNTYAMNWVRKAPGKGLEWVGRIRSKYNNYATYYADSVKDRFTISRDDSKNSLYLQMNSLKTEDTAVYYCVRHGNFGNSYVSWFAYWGQGTLVTVSSASTKGPSVFPLAPCSRSTSESTAALGCLVKDYFPEPVTVSWNSGALTSGVHTFPAVLQSSGLYSLSSVVTVPSSSLGTKTYTCNVDHKPSNTKVDKRVESKYGPPCPPCPAPEFEGGPSVFLFPPKPKDTLMISRTPEVTCVVVDVSQEDPEVQFNWYVDGVEVHNAKTKPREEQFNSTYRVVSVLTVLHQDWLNGKEYKCKVSNKGLASSIEKTISKAKGQPREPQVYTLPPCQEEMTKNQVSLWCLVKGFYPSDIAVEWESNGQPENNYKTTPPVLDSDGSFFLYSKLTVDKSRWQEGNVFSCSVMHEALHNHYTQKSLSLSLGK
notes: also called GPC3 x CD3 κλ002; GPC3×CD3κλ bispecific antibody
B2: GPC3×CD3 κλ003 (bispecific antibody, human IgG4 S228P, kappa, lambda)
light 1: B1 light 1 with E128K, Q129K
heavy 1: B1 heavy 1 with K145E, K211E
light 2: B1 light 2
heavy 2: B1 heavy 2
notes: also called GPC3 x CD3 κλ003; GPC3×CD3κλ bispecific antibody

How the values were obtained:
human CD3 on T cells [1] = molecular target: T1, human CD3 on T cells (human, UniProt P07766 23-207); assay: flow cytometry, Jurkat cells
T1 construct: whole, on cells; The target is the native CD3 complex on cells; The recombinant antigen used elsewhere is the εγ heterodimer; also called CD3 on Jurkat cells; CD3 on human peripheral blood CD4+ and CD8+ T cells
Method: Jurkat cells in the logarithmic growth phase were taken, added with 200 μg/mL of murine IgG (Jackson ImmunoResearch, 115-005-03), and incubated on ice for 30 minutes. The cells were adjusted to 5×10⁵ cells/mL with 4% calf serum and added to a 96-well U-shaped plate at 100 μl/well. The centrifugation was performed at 300 g. The supernatant was discarded. 100 μL of gradient diluted antibody (initial concentration: 1800 nM, 3-fold dilution, 10 gradients) was added to each well, and incubated at 4° C. for 60 min. The secondary antibody Alexa Fluro647 labeled goat anti-human IgG Fc (1:300 dilution) was added at 50 μL/well and incubated on ice for 20 min. After washing once, PI solution was added at 50 μL/well. Incubation was performed for 5 min before detection by flow cytometry (BD C6).

human GPC3 on cells = molecular target: T2, human GPC3 on cells (human, UniProt P51654 25-563); assay: flow cytometry, CHO-human GPC3 cells
T2 construct: whole, on cells; One molecule is used for both CHO-hGPC3 transfectants and GPC3+ HepG2 cells; The assay field names the cell; also called CHO-hGPC3 (clone 2B10); CHO-human GPC3
Method: CHO-human GPC3 and CHO-cynomolgus monkey GPC3 stably-transfected cells in the logarithmic growth phase were taken, adjusted to 5×10⁵ cells/ml using 4% calf serum (Hyclone, SH30626.06), and added to a 96-well U-shaped plate at 100 μl/well cell suspension. The centrifugation was performed at 300 g for 5 min. The supernatant was discarded. 100 μL of gradient diluted antibody (initial concentration: 1800 nM, 3-fold dilution, 10 gradients) was added to each well, and incubated at 4° C. for 60 min. The secondary antibody Alexa Fluro647 labeled goat anti-human IgG Fc (1:300 dilution) was added at 50 μL/well and incubated on ice for 20 min. After washing once, propidium iodide solution (1:300) was added at 50 μL/well. Incubation was performed for 5 min before detection by flow cytometry.

human CD3 on T cells [2] = molecular target: T1, human CD3 on T cells; assay: flow cytometry, human peripheral blood CD8+ T cells
Method: Fresh human peripheral blood was taken and PBMCs were isolated by Ficoll-Paque Plus (GE, 17-1440-03). The PBMCs were adjusted to 5×10⁵ cells/mL with 4% calf serum (Hyclone, SH30626.06), and added to a 96-well U-plate at 100 μL/well. The centrifuged supernatant was discarded. 100 μL of gradient diluted antibody (initial concentration: 1800 nM, 3-fold dilution, 11 gradients) was added to each well and incubated at 4° C. for 60 minutes. The secondary antibody Alexa Fluro647 labeled goat anti-human IgG Fc (1:300 dilution) was added at 50 μL/well and incubated on an ice bath for 20 min. After washing once, PI solution was added at 50 μL/well. Incubation was performed for 5 min before detection by flow cytometry (BD Celesta). The GPC3×CD3κλ bispecific antibody can bind to the human peripheral blood T cell with low affinity.

[3] = molecular target: T3, recombinant human GPC3 protein (human, UniProt P51654 25-563); assay: SPR (Biacore T200), antibody on Protein A chip, GPC3 as analyte
T3 construct: also called human GPC3 full-length protein; recombinant GPC3 protein
Method: (§1) The antibodies with a concentration of 1 μg/ml were captured on the Protein A chip (GE healthcare). Different concentrations of recombinant human or cynomolgus monkey GPC3 protein (5 μg/ml as the initial concentration, 2-fold gradient, a total of 6 concentration points) as the analyte was flowed through the chip at a flow rate of 30 μL/min, with an association time of 120 seconds, and a dissociation time of 400 seconds. The changes in the SPR signal during the association and dissociation of the protein were recorded. The kinetic constants were obtained by fitting with 1:1 binding model using Biacore T200 evaluation software.

[4] = molecular target: recombinant cynomolgus monkey GPC3 full-length protein (cynomolgus monkey, UniProt A0A2K5VK50 24-558); assay: as above
Method: as §1

[5] = molecular target: T4, cynomolgus monkey CD3εγ-Fc heterodimer (cynomolgus monkey); assay: SPR (Biacore T200), CD3εγ amine-coupled to the chip, antibody as analyte
T4 construct: also called monkey CD3 εγ protein
T4 chain 1: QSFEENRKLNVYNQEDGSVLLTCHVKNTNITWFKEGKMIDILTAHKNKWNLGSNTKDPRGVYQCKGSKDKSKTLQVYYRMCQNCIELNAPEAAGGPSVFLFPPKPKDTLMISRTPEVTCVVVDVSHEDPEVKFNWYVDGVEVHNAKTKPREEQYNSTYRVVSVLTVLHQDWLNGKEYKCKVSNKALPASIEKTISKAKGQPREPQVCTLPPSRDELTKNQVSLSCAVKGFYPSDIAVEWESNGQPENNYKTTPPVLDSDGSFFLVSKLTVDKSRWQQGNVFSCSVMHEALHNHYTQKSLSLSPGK
T4 chain 2: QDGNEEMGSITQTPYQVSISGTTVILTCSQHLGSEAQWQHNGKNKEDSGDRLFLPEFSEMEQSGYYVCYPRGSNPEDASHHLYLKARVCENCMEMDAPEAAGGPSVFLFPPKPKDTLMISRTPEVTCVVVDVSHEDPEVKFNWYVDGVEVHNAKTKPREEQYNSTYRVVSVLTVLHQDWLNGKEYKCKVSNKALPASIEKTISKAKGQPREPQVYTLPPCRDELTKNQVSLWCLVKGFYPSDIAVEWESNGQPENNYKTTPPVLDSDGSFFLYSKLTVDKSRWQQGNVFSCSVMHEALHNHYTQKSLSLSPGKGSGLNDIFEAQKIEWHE
Method: Human or monkey CD3 εγ recombinant antigen at 10 μg/mL was bound to a CMS chip (GE healthcare) by amino coupling, and the antigen binding capacity was controlled to approximately 200 RU. After the baseline was stable, gradient diluted antibodies (initially with 10 μg/mL, 2-fold dilution, 7 gradients) were flowed through the chip at a flow rate of 30 μL/min, with an association time of 350 seconds and a dissociation time of 600 seconds. The kinetic constants were obtained by fitting with 1:1 binding model using Biacore T200 evaluation software.

Binder	EC50 (human CD3 on T cells [1])	EC50 (human GPC3 on cells)	EC50 (human CD3 on T cells [2])	Kd [3]	Kd [4]	Kd [5]
B1	36 nM	2.8 nM	65 nM	1.35 nM	1.6 nM	23.9 nM
B2	26 nM	2.9 nM	69 nM	2.11 nM	1.91 nM	17.8 nM
